The values that follow are results of earlier work, collected in article PMC11769735.

Read-outs that look alike come from different tables or passages of the source.

For series [1], the target named is ADP-actin filament barbed end (UniProt P68133).
The target of series [2] is G-actin (UniProt P68133).
Series [3] addresses G-actin (UniProt P68133). The source holds these as a separate data set.

The term Kd denotes a measure of binding affinity in units of concentration. Take Twinfilin (from UniProt Q91YR1): the Kd in series [1] was 13 nM.

Take Twinfilin C-ADF-H (from UniProt Q91YR1): the Kd in the series with G-actin [2] is 50 nM.

As for Twinfilin N-ADF-H (from UniProt Q91YR1), in the series with G-actin [3], the dissociation constant Kd is 700 nM.
